{"source": "paper PMC10579561", "about": "“Real flue gas CO2 hydrogenation to formate by an enzymatic reactor using O2- and CO-tolerant hydrogenase and formate dehydrogenase” (Frontiers in Bioengineering and Biotechnology, 2023)", "substrate": "NC(=O)C1=CN([C@@H]2O[C@H](COP(=O)(O)OP(=O)(O)OC[C@H]3O[C@@H](n4cnc5c(N)ncnc54)[C@H](O)[C@@H]3O)[C@@H](O)[C@H]2O)C=CC1", "experiment": "purified protein", "assay_type": "biochemical, Methylorubrum extorquens", "conditions": "100 mM sodium bicarbonate, N2-purged 200 mM Kpi pH 6.5 (no O2 or CO), NADH varied 6.25-100 µM, table header prints NAD+, free enzyme", "data": [{"protein": "MeFDH1 (Methylorubrum extorquens AM1) (protein, with Tungsten-containing formate dehydrogenase alpha subunit) MSEASGTVRSFAHPGRGRNVARAVPKGRQVDPHAKVEIEELLGTRPRQRDLLIEHLHLIQDTYGQISADHLAALADEMSLAFAEVFETATFYAHFDVVKEGEADIPRLTIRVCDSITCAMFGADELLETLQRELASDAVRVVRAPCVGLCDHAPAVEVGHNFLHRADLASVRAAVEAEDTHAHIPTYVDYDAYRAGGGYATLERLRSGELPVDDVLKVLDDGGLRGLGGAGFPTGRKWRSVRGEPGPRLMAVNGDEGEPGTFKDQLYLNTDPHRFLEGMLIGAHVVEAADVYIYLRDEYPISREILAREIAKLPEGGTRIHLRRGAGAYICGEESSLIESLEGKRGLPRHKPPFPFQVGLFNRPTLINNIETLFWVRDLIERGAEWWKSHGRNGRVGLRSYSVSGRVKEPGVKLAPAGLTIQELIDEYCGGISDGHSFAAYLPGGASGGILPASMNDIPLDFGTLEKYGCFIGSAAVVILSDQDDVRGAALNLMKFFEDESCGQCTPCRSGTQKARMLMENGVWDTDLLGELAQCMRDASICGLGQAASNPVSTVIKYFPDLFPEPRAVAAE", "values": [{"measurement": "Km", "value": "26.38 ± 1.16", "unit": "µM"}, {"measurement": "kcat", "value": "2.27 ± 0.064", "unit": "s⁻¹"}, {"measurement": "kcat/Km", "value": "86200 ± 3000", "unit": "M⁻¹ s⁻¹"}]}]}
